Key:
[1] = target: MAP4K4 (human, UniProt O95819 2-1239, limits assumed); test: IP/MS, LZTR1 wild type-FLAG, U87
In short: (§1)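 Extracted peptides in 3% acetonitrile/0.1% formic acid ran on a 50 cm C18 column into an Orbitrap Fusion, with MaxQuant identification and spectral counting.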

[2] = target: T1, NCAPD3 (human, UniProt P42695 1-1498); test: IP/MS, LZTR1 wild type-FLAG, U87
T1 sequence (looked up): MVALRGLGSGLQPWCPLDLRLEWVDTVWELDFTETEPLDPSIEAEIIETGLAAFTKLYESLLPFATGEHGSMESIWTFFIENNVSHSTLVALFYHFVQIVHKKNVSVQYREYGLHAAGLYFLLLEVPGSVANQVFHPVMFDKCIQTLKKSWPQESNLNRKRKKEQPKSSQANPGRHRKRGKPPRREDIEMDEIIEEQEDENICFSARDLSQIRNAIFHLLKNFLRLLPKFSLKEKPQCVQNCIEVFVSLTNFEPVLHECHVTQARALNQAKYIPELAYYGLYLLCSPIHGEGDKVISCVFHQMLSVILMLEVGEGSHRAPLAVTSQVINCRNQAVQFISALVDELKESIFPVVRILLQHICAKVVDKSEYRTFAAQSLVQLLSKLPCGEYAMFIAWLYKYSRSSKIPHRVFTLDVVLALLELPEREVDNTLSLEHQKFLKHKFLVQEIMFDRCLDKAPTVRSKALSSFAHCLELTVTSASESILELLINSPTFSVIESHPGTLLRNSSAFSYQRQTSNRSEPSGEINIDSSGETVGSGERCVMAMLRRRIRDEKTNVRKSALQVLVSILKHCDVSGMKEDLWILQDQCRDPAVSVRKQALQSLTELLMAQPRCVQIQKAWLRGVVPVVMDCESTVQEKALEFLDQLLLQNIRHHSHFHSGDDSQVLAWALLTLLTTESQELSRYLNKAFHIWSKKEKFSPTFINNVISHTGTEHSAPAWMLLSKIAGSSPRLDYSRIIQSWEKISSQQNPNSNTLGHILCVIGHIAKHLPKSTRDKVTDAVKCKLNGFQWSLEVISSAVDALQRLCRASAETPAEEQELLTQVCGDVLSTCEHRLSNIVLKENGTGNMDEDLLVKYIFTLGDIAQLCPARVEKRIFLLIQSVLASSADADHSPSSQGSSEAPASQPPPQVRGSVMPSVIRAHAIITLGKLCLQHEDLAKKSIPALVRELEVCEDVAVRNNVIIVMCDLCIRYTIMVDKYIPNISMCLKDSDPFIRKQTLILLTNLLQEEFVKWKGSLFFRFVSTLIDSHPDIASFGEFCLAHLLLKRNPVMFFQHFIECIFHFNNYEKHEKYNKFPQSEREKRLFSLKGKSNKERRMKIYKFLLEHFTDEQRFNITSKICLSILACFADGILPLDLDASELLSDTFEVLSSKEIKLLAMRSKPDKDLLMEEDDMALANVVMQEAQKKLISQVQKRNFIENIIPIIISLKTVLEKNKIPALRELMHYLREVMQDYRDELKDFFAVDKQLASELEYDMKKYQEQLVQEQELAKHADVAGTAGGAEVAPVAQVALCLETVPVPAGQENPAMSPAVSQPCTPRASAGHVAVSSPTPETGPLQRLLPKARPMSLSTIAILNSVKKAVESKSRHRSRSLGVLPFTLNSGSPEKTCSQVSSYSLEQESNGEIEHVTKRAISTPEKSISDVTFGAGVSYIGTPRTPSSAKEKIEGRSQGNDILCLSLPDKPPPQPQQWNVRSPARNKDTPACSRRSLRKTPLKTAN
In short: as §1

Chain of MAP4K4 (O95819 2-1239 limits assumed): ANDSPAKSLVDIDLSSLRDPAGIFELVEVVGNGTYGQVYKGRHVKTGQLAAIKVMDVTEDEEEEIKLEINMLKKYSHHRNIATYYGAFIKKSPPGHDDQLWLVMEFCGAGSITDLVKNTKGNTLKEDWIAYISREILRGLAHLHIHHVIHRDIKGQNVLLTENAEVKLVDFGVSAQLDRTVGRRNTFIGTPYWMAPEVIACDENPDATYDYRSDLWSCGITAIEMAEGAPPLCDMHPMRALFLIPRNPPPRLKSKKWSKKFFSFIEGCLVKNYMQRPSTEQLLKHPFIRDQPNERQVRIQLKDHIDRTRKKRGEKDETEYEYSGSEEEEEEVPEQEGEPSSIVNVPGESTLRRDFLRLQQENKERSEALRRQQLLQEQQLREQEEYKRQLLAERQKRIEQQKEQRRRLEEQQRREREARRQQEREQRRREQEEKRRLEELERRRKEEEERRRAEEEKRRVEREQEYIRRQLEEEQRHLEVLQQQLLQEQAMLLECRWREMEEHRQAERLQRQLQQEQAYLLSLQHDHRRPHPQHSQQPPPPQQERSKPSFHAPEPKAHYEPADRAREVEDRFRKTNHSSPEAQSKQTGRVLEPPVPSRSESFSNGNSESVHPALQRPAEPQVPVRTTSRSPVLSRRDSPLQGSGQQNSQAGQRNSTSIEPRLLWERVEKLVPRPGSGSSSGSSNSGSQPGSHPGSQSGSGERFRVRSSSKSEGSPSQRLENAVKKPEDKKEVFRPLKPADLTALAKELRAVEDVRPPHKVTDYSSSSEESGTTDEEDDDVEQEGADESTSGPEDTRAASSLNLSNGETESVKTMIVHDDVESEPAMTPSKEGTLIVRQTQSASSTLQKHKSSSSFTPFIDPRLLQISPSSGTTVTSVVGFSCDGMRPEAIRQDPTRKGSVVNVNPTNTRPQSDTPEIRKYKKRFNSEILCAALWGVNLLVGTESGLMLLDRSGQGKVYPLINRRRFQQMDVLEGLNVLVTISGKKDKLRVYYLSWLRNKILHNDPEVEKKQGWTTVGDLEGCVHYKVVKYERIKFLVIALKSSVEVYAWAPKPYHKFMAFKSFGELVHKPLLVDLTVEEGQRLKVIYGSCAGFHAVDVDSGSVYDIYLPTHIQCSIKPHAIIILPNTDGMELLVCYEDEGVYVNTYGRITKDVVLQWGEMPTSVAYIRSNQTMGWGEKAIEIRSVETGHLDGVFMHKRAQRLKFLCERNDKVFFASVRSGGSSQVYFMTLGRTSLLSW

binding result [1]: binds
binding result [2]: binds
B1: LZTR1-FLAG (other, human, UniProt Q8N653 1-840, looked up)
chain: MAGPGSTGGQIGAAALAGGARSKVAPSVDFDHSCSDSVEYLTLNFGPFETVHRWRRLPPCDEFVGARRSKHTVVAYKDAIYVFGGDNGKTMLNDLLRFDVKDCSWCRAFTTGTPPAPRYHHSAVVYGSSMFVFGGYTGDIYSNSNLKNKNDLFEYKFATGQWTEWKIEGRLPVARSAHGATVYSDKLWIFAGYDGNARLNDMWTIGLQDRELTCWEEVAQSGEIPPSCCNFPVAVCRDKMFVFSGQSGAKITNNLFQFEFKDKTWTRIPTEHLLRGSPPPPQRRYGHTMVAFDRHLYVFGGAADNTLPNELHCYDVDFQTWEVVQPSSDSEVGGAEVPERACASEEVPTLTYEERVGFKKSRDVFGLDFGTTSAKQPTQPASELPSGRLFHAAAVISDAMYIFGGTVDNNIRSGEMYRFQFSCYPKCTLHEDYGRLWESRQFCDVEFVLGEKEECVQGHVAIVTARSRWLRRKITQARERLAQKLEQEAAPVPREAPGVAAGGARPPLLHVAIREAEARPFEVLMQFLYTDKIKYPRKGHVEDVLLIMDVYKLALSFQLCRLEQLCRQYIEASVDLQNVLVVCESAARLQLSQLKEHCLNFVVKESHFNQVIMMKEFERLSSPLIVEIVRRKQQPPPRTPLDQPVDIGTSLIQDMKAYLEGAGAEFCDITLLLDGHPRPAHKAILAARSSYFEAMFRSFMPEDGQVNISIGEMVPSRQAFESMLRYIYYGEVNMPPEDSLYLFAAPYYYGFYNNRLQAYCKQNLEMNVTVQNVLQILEAADKTQALDMKRHCLHIIVHQFTKVSKLPTLRSLSQQLLLDIIDSLASHISDKQCAELGADI
notes: Expressed in HEK 293T, HeLa or U87 cells; used as cell lysate; also called LZTR1 wild type-FLAG; LZTR1 WT; not shown: FLAG tag at the C-terminus
